Target: the molecule itself
Test: cross-linking

B1: Hin–H107Y/S94C (enzyme)
chain: MATIGYIRVSTIDQNIDLQRNALTSANCDRIFEDRISGKIANRPGLKRALKYVNKGDTLVVWKLDRLGRSVKNLVALISELHERGAHFHSLTDCIDTSSAMGRFFFYVMSALAEMERELIVERTLAGLAAARAQGRLGGRPRAINKHEQEQISRLLEKGHPRQQLAIIFGIGVSTLYRYFPASRIKKRMN
binding result: binds
